In US6383782:
Each block holds one substance with its values, some of them ahead of it.

How the values were obtained:
[1] = molecular target: MCP-1 receptor B (CCR2B) (human) (UniProt P41597); experiment: cell-based or functional assay
[2] = molecular target: MCP-1 receptor B (CCR2B) (human) (UniProt P41597); experiment: competition with 100 pM 125I-MCP-1 on CHO-CCR2B membranes, filtration; mean of 18 assays
[3] = molecular target: MCP-1 receptor B (CCR2B) (human) (UniProt P41597); experiment: competition with 100 pM 125I-MCP-1 on CHO-CCR2B membranes, filtration; at least 2 assays
[4] = molecular target: MCP-1 receptor B (CCR2B) (human) (UniProt P41597); experiment: equilibrium binding of 125I-MCP-1 to CHO-CCR2B membranes
[5] = molecular target: MCP-1 receptor B (CCR2B) (human) (UniProt P41597); experiment: cold competition of unlabelled MCP-1 against 100 pM 125I-MCP-1 on CHO-CCR2B membranes
[6] = molecular target: MCP-1 receptor B (CCR2B) (human) (UniProt P41597); experiment: competition with 100 pM 125I-MCP-1 on CHO-CCR2B membranes, filtration; mean of 8 assays

Calcium flux (IC50), THP-1 cells [1]: 45 nM
Chemotaxis (IC50), THP-1 cells, 1 nM MCP-1 [1]: 12 nM
IC50 [2]: 1.9 nM
Substance: MCP1(9-76) (SEQ ID NO: 30) (from UniProt P13500 32-99) (ligand)

IC50 [3]: 3.2 nM
Substance: Met-MCP1(9-76) (SEQ ID NO: 31) (from UniProt P13500 32-99) (ligand)

Kd [4]: 0.12 nM
IC50 [5]: 0.11 nM
rise in [Ca2+]i in THP-1 cells (EC50) [1]: 2 nM
Substance: Monocyte Chemoattractant Protein-1 (MCP-1) (from UniProt P13500 24-99) (ligand)

Calcium flux (IC50), THP-1 cells [1]: 109 nM
Chemotaxis (IC50), THP-1 cells, 1 nM MCP-1 [1]: 23 nM
IC50 [2]: 2.5 nM
Substance: [V9A]MCP1(9-76) (SEQ ID NO: 9) (from UniProt P13500 33-99) (ligand)

Chemotaxis (IC50), THP-1 cells, 1 nM MCP-1 [1]: 10.9 nM
IC50 [6]: 3.2 nM
Substance: [V9G]MCP1(9-76) (SEQ ID NO: 26) (from UniProt P13500 33-99) (ligand)

Chemotaxis (IC50), THP-1 cells, 1 nM MCP-1 [1]: 21 nM
IC50 [6]: 2 nM
Substance: [V9T]MCP1(9-76) (SEQ ID NO: 29) (from UniProt P13500 33-99) (ligand)

IC50 [3]: 2.6 nM
Calcium flux (IC50), THP-1 cells [1]: 117 nM
Substance: pGlu-MCP1(9-76) (SEQ ID NO: 32) (from UniProt P13500 32-99) (ligand)
